PMC6370554

Molecular target: biotinylated histone H3K27me3 (21-44) peptide (UniProt P68431)
Experiment: ELISA

Q: “Pcαα fusion protein (tandem human CBX8 PCDs, mCherry, VP64) (from UniProt Q9HC52 1-62; Q9HC52 1-62) (designed binder)” was tested. Which HRP ELISA signal:background ratio (H3K27me3 over unmodified H3) did it give?
A: 6
